Data on 34 molecules can be found in US20210388110A1 (published 2021).

Where a chain is given by its changes, count along the chain named.

The target in the assay is T1, soluble human CD3ε chain (human, UniProt P07766 23-126, limits assumed).
T1 construct: the text says soluble human CD3ε chain; also called human CD3 epsilon chain
Description: SPR (Biacore).

T1 sequence (P07766 23-126 limits assumed): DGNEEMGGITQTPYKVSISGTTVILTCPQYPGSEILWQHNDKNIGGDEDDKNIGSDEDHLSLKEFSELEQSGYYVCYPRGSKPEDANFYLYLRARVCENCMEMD

B1: TR01H066-E22Hh/none-Hi-Kn010G3/L0000-k0 (antibody, human IgG1, kappa, L234A L235A, N297A)
heavy: QVQLVESGGGLVQPGRSLRLSCAASGFTFSNAWMHWVRQAPGKGLEWVAQIKDKSQNYATYYAESVKGRFTISRADSKNSLYLQMNSLKTEDTAVYYCRYVHYAASYGVDAWGQGTTVTVSSASTKGPSVFPLAPSSKSTSGGTAALGCLVKDYFPEPVTVSWNSGALTSGVHTFPAVLQSSGLYSLSSVVTVPSSSLGTQTYICNVNHKPSNTKVDKKVEPKSCDKTHTCPPCPAPEAAGGPSVFLFPPKPKDTLMISRTPEVTCVVVDVSHEDPEVKFNWYVDGVEVHNAKTKPREEQYASTYRVVSVLTVLHQDWLNGKEYKCKVSNKALPAPIEKTISKAKGQPREPQVYTLPPSRCELTKNQVSLSCAVKGFYPSDIAVEWESNGQPENNYKTTPPVLDSDGSFFLVSKLTVDKSRWQQGNVFSCSVMHEALHNHYTQKSLSLSPDYKDDDDK
chain: EPKSSDKTHTCPPCPAPELLGGPSVFLFPPKPKDTLMISRTPEVTCVVVDVSHEDPEVKFNWYVDGVEVHNAKTKPREEQYNSTYRVVSVLTVLHQDWLNGKEYKCKVSNKALPAPIEKTISKAKGQPREPQVCTLPPSRDELTKNQVSLWCLVKGFYPSDIAVEWESNGQPENNYKTTPPVLDSDGSFFLYSKLTVDKSRWQQGNVFSCSVMHEALHNRYTQKSLSLSP
light: DIVMTQSPLSLPVTPGEPASISCRSSQSLVHSNRNTYLHWYQQKPGQAPRLLIYKVSNRFSGVPDRFSGSGSGTDFTLKISRVEAEDVGVYYCGQGTQVPYTFGQGTKLEIKRTVAAPSVFIFPPSDEQLKSGTASVVCLLNNFYPREAKVQWKVDNALQSGNSQESVTEQDSKDSTYSLSSTLTLSKADYEKHKVYACEVTHQGLSSPVTKSFNRGEC
notes: single-arm
For B1, the Kd is 60.2 nM.

B2: TR01H071-E22Hh/none-Hi-Kn010G3/L0226-k0 (antibody, human IgG1, kappa, L234A L235A, N297A)
heavy: B1 heavy with Q56N, L81I, A111I
chain: B1 chain
light: B1 light with L29P, L38I, G94I
notes: single-arm
As to B2, the Kd was 25.1 nM. Against the preceding molecule, the Kd is about 2.4-fold lower.

B3: TR01H071-E22Hh/none-Hi-Kn010G3/L0222-k0 (antibody, human IgG1, kappa, L234A L235A, N297A)
heavy: B1 heavy with Q56N, L81I, A111I
chain: B1 chain
light: B1 light with L29P, L38I, H39Q, G94Y
notes: single-arm
The molecule B3 showed a Kd of 10.4 nM.

B4: TR01H082-E22Hh/none-Hi-Kn010G3/L0011-k0 (antibody, human IgG1, kappa, L234A L235A, N297A)
heavy: B1 heavy with A75D, S106G
chain: B1 chain
light: B1 light with S28P
notes: single-arm
In the case of B4, the affinity, expressed as Kd, was 59.5 nM.

B5: TR01H082-E22Hh/none-Hi-Kn010G3/L0266-k0 (antibody, human IgG1, kappa, L234A L235A, N297A)
heavy: B1 heavy with A75D, S106G
chain: B1 chain
light: B1 light with S28P, L29P, G94V
notes: single-arm
As for B5, the affinity, expressed as Kd, was 22.9 nM.

B6: TR01H082-E22Hh/none-Hi-Kn010G3/L0259-k0 (antibody, human IgG1, kappa, L234A L235A, N297A)
heavy: B1 heavy with A75D, S106G
chain: B1 chain
light: B1 light with L29P, L38I, G94T
notes: single-arm
In turn, B6 yielded a Kd of 50.7 nM.

B7: TR01H067-E22Hh/none-Hi-Kn010G3/TR01L019-k0 (antibody, human IgG1, kappa, L234A L235A, N297A)
heavy: B1 heavy with A75D
chain: B1 chain
light: B1 light with R24Q, S25A, Q27E, L29P, Q42L, A48S, R50Q, G94Y
notes: single-arm
On to B7, for which the Kd was 12.1 nM.

B8: TR01H082-E22Hh/none-Hi-Kn010G3/L0201-k0 (antibody, human IgG1, kappa, L234A L235A, N297A)
heavy: B1 heavy with A75D, S106G
chain: B1 chain
light: B1 light with S28P, L29P
notes: single-arm
Regarding B8, the affinity, expressed as Kd, was 44.9 nM.

B9: TR01H081-E22Hh/none-Hi-Kn010G3/L0201-k0 (antibody, human IgG1, kappa, L234A L235A, N297A)
heavy: B1 heavy with L81I, S106G, A111I
chain: B1 chain
light: B1 light with S28P, L29P
notes: single-arm
For B9, the Kd was determined as 9.46 nM.

B10: TR01H081-E22Hh/none-Hi-Kn010G3/L0011-k0 (antibody, human IgG1, kappa, L234A L235A, N297A)
heavy: B1 heavy with L81I, S106G, A111I
chain: B1 chain
light: B1 light with S28P
notes: single-arm
Consider B10, for which the Kd is 13.5 nM. This Kd and that of the molecule before are within 1.5-fold of each other.

B11: TR01H067-E22Hh/none-Hi-Kn010G3/TR01L016-k0 (antibody, human IgG1, kappa, L234A L235A, N297A)
heavy: B1 heavy with A75D
chain: B1 chain
light: B1 light with L29P, Q42L, A48S, R50Q, G94Y
notes: single-arm
With B11, binding was characterised by a dissociation constant (Kd) of 10.9 nM.

B12: TR01H072-E22Hh/none-Hi-Kn010G3/L0000-k0 (antibody, human IgG1, kappa, L234A L235A, N297A)
heavy: B1 heavy with L81I, A111I
chain: B1 chain
light: B1 light
notes: single-arm
In turn, B12 displayed a Kd of 20.3 nM.

B13: TR01H082-E22Hh/none-Hi-Kn010G3/L0212-k0 (antibody, human IgG1, kappa, L234A L235A, N297A)
heavy: B1 heavy with A75D, S106G
chain: B1 chain
light: B1 light with S25P, L29P, G94Y
notes: single-arm
Turning to B13, the Kd is 4.75 nM. This Kd lies about 4.3-fold lower than the previous one.

B14: TR01H067-E22Hh/none-Hi-Kn010G3/L0262-k0 (antibody, human IgG1, kappa, L234A L235A, N297A)
heavy: B1 heavy with A75D
chain: B1 chain
light: B1 light with S28P, L29P, G94A
notes: single-arm
For the molecule B14, binding was characterised by a dissociation constant (Kd) of 49.2 nM.

B15: TR01H081-E22Hh/none-Hi-Kn010G3/L0262-k0 (antibody, human IgG1, kappa, L234A L235A, N297A)
heavy: B1 heavy with L81I, S106G, A111I
chain: B1 chain
light: B1 light with S28P, L29P, G94A
notes: single-arm
Take B15: binding was put at a Kd of 5.76 nM.

B16: TR01H074-E22Hh/none-Hi-Kn010G3/L0000-k0 (antibody, human IgG1, kappa, L234A L235A, N297A)
heavy: B1 heavy with L11V, R16G, L81I, A111I
chain: B1 chain
light: B1 light
notes: single-arm
Consider B16, for which the Kd was 29.1 nM.

B17: TR01H082-E22Hh/none-Hi-Kn010G3/L0263-k0 (antibody, human IgG1, kappa, L234A L235A, N297A)
heavy: B1 heavy with A75D, S106G
chain: B1 chain
light: B1 light with L29P, L38I, G94A
notes: single-arm
Consider B17, for which the Kd stood at 30.9 nM.

B18: TR01H071-E22Hh/none-Hi-Kn010G3/L0200-k0 (antibody, human IgG1, kappa, L234A L235A, N297A)
heavy: B1 heavy with Q56N, L81I, A111I
chain: B1 chain
light: B1 light with S25P, L29P
notes: single-arm
Take B18: binding was put at a Kd of 6.13 nM.

B19: TR01H067-E22Hh/none-Hi-Kn010G3/L0203-k0 (antibody, human IgG1, kappa, L234A L235A, N297A)
heavy: B1 heavy with A75D
chain: B1 chain
light: B1 light with L29P, L38I
notes: single-arm
For the molecule B19, the Kd was found to be 47.9 nM. This Kd lies about 7.8-fold higher than the previous one.

B20: TR01H082-E22Hh/none-Hi-Kn010G3/L0260-k0 (antibody, human IgG1, kappa, L234A L235A, N297A)
heavy: B1 heavy with A75D, S106G
chain: B1 chain
light: B1 light with S25P, L29P, G94T
notes: single-arm
The molecule B20 registered a Kd of 45.3 nM.

B21: TR01H082-E22Hh/none-Hi-Kn010G3/L0264-k0 (antibody, human IgG1, kappa, L234A L235A, N297A)
heavy: B1 heavy with A75D, S106G
chain: B1 chain
light: B1 light with S25P, L29P, G94A
notes: single-arm
As to B21, the Kd stood at 34.4 nM.

B22: TR01H067-E22Hh/none-Hi-Kn010G3/L0200-k0 (antibody, human IgG1, kappa, L234A L235A, N297A)
heavy: B1 heavy with A75D
chain: B1 chain
light: B1 light with S25P, L29P
notes: single-arm
As for B22, the Kd was 60.3 nM.

B23: TR01H082-E22Hh/none-Hi-Kn010G3/L0258-k0 (antibody, human IgG1, kappa, L234A L235A, N297A)
heavy: B1 heavy with A75D, S106G
chain: B1 chain
light: B1 light with S28P, L29P, G94T
notes: single-arm
B23 returned a Kd of 47 nM.

B24: TR01H076-E22Hh/none-Hi-Kn010G3/L0000-k0 (antibody, human IgG1, kappa, L234A L235A, N297A)
heavy: B1 heavy with L11V, R16G, L81I, A111Y
chain: B1 chain
light: B1 light
notes: single-arm
B24: the affinity, expressed as Kd, was 47.8 nM. This Kd and that of the molecule before are within 1.5-fold of each other.

B25: TR01H073-E22Hh/none-Hi-Kn010G3/L0000-k0 (antibody, human IgG1, kappa, L234A L235A, N297A)
heavy: B1 heavy with A75D, A111I
chain: B1 chain
light: B1 light
notes: single-arm
As to B25, the Kd worked out at 59.7 nM. The Kd values of the last two molecules are within 1.5-fold of each other.

B26: TR01H082-E22Hh/none-Hi-Kn010G3/L0203-k0 (antibody, human IgG1, kappa, L234A L235A, N297A)
heavy: B1 heavy with A75D, S106G
chain: B1 chain
light: B1 light with L29P, L38I
notes: single-arm
Molecule B26 registered a Kd of 40.7 nM.

B27: TR01H082-E22Hh/none-Hi-Kn010G3/L0000-k0 (antibody, human IgG1, kappa, L234A L235A, N297A)
heavy: B1 heavy with A75D, S106G
chain: B1 chain
light: B1 light
notes: single-arm
Turning to B27, the Kd stood at 73.7 nM.

B28: TR01H067-E22Hh/none-Hi-Kn010G3/L0201-k0 (antibody, human IgG1, kappa, L234A L235A, N297A)
heavy: B1 heavy with A75D
chain: B1 chain
light: B1 light with S28P, L29P
notes: single-arm
For B28, binding was characterised by a dissociation constant (Kd) of 59.3 nM.

B29: TR01H081-E22Hh/none-Hi-Kn010G3/L0000-k0 (antibody, human IgG1, kappa, L234A L235A, N297A)
heavy: B1 heavy with L81I, S106G, A111I
chain: B1 chain
light: B1 light
notes: single-arm
Regarding B29, the Kd turned out to be 15.6 nM. This Kd is about 3.8-fold lower than that of the molecule before.

B30: TR01H067-E22Hh/none-Hi-Kn010G3/L0212-k0 (antibody, human IgG1, kappa, L234A L235A, N297A)
heavy: B1 heavy with A75D
chain: B1 chain
light: B1 light with S25P, L29P, G94Y
notes: single-arm
In turn, B30 returned a Kd of 5.88 nM.

B31: TR01H071-E22Hh/none-Hi-Kn010G3/L0215-k0 (antibody, human IgG1, kappa, L234A L235A, N297A)
heavy: B1 heavy with Q56N, L81I, A111I
chain: B1 chain
light: B1 light with S28P, L29P, L38I
notes: single-arm
Molecule B31 returned a Kd of 9.51 nM.

B32: TR01H069-E22Hh/none-Hi-Kn010G3/L0000-k0 (antibody, human IgG1, kappa, L234A L235A, N297A)
heavy: B1 heavy with L11V, R16G, A75D, A111I
chain: B1 chain
light: B1 light
notes: single-arm
In turn, B32 gave a Kd of 71.1 nM.

B33: TR01H071-E22Hh/none-Hi-Kn010G3/L0000-k0 (antibody, human IgG1, kappa, L234A L235A, N297A)
heavy: B1 heavy with Q56N, L81I, A111I
chain: B1 chain
light: B1 light
notes: single-arm
Regarding B33, the Kd turned out to be 8.85 nM. Against the preceding molecule, the Kd is about 8-fold lower.

B34: TR01H082-E22Hh/none-Hi-Kn010G3/L0262-k0 (antibody, human IgG1, kappa, L234A L235A, N297A)
heavy: B1 heavy with A75D, S106G
chain: B1 chain
light: B1 light with S28P, L29P, G94A
notes: single-arm
Consider B34, for which the Kd turned out to be 39.8 nM.
